From publication PMC10349056, “The combined action of the intracellular regions regulates FGFR2 kinase activity” (Communications Biology, 2023)
Where no end group is shown, it is not given here.

Key:
[1] = target: FGFR2 juxtamembrane region (407-462), labelled with Atto 488 (UniProt P21802); test: MST; JM labelled with Atto 488, serial dilutions of KD titrated, 25 °C; 20 mM HEPES, 150 mM NaCl, 1 mM TCEP, 0.01% Tween 20, pH 7.5; the text calls the constant of KD^pY1 apparent (Kd,app)
[2] = target: FGFR2^C3 tagged with GFP or RFP; test: FRET or BRET; FLIM of GFP- and RFP-tagged FGFR2 co-expressed in serum-starved HEK293T cells, fixed
[3] = target: FGFR2 C-terminal tail of the C1 isoform, untagged (the last 58 residues of FGFR2) (UniProt P21802); test: SPR; untagged CT immobilised on a CM4 chip by amine coupling (about 200 RU); JM-KD proteins of different phosphorylation level injected at 30 µl/min, then buffer wash; steady-state fitting
[4] = target: FGFR2^C2 tagged with GFP or RFP; test: FRET or BRET; FLIM of GFP- and RFP-tagged FGFR2 co-expressed in serum-starved HEK293T cells, fixed
[5] = target: JM (juxtamembrane region of FGFR2IIIb, as used in MST and NMR); test: MST; JM labeled with Atto 488, serial dilutions of KD titrated, 25 °C, 20 mM HEPES, 150 mM NaCl, 1 mM TCEP, 0.01% Tween 20, pH 7.5; apparent
[6] = target: CT^C1 (C-terminal tail of FGFR2IIIb C1 isoform, GST cleaved) (UniProt P21802); test: MST; CT^C1 labeled with Atto488, titrated with unlabeled JM-KD^pY1 or KD^pY1, 25 °C
[7] = target: KD^pY1 (mono-phosphorylated FGFR2IIIb kinase domain) (UniProt P21802); test: MST; Atto488-labeled protein titrated with the same unlabeled protein, 25 °C; apparent dimerization constant, dimer to monomers
[8] = target: JM-KD^pY1 (mono-phosphorylated juxtamembrane region plus kinase domain) (UniProt P21802); test: SPR; apparent dimerization constant of JM-KD^pY1 (Supplementary Fig. 2c)
[9] = target: JM-KD^pY1 (mono-phosphorylated juxtamembrane region plus kinase domain) (UniProt P21802); test: MST; Atto488-labeled protein titrated with the same unlabeled protein, 25 °C; apparent dimerization constant, dimer to monomers
[10] = target: CT^C1 (C-terminal tail of FGFR2IIIb C1 isoform, GST cleaved) (UniProt P21802); test: SPR; BIAcore T100, CT^C1 immobilised on CM4 chip by amine coupling to about 200 RU, analytes at 30 µl/min
[11] = target: T1, FGFR2 kinase domain, mono-phosphorylated on Y657 (UniProt P21802-3 465-764, Y467F (worked out from the printed order of phosphorylation) | Y587F (worked …, phosphotyrosine at 657)); test: MST; synthetic JM or CT peptides in serial dilution against KD^pY1, 25 °C; 20 mM HEPES, 150 mM NaCl, 1 mM TCEP, 0.01% Tween 20, pH 7.5; conditions: both partners purified
T1 construct: FGFR2 (IIIb isoform) kinase domain, residues 465-764; numbers count on: FGFR2IIIb (C1 isoform, 822 residues); also called KD^pY1; source: E. coli BL21(DE3), purified (Talon, Superdex 75)
T1 sequence (P21802 464-763 Y466F/Y586F/Y588F/Y657F/Y733F): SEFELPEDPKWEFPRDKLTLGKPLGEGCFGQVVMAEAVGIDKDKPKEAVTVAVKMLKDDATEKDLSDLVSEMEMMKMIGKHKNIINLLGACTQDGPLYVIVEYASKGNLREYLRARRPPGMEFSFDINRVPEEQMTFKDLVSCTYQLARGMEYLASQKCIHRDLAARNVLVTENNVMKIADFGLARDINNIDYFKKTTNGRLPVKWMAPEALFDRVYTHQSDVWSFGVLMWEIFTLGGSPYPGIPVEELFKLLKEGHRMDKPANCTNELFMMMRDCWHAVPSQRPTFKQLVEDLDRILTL

[12] = target: T2, FGFR2 C-terminal tail of the C1 isoform, untagged, labelled with Atto 488 (UniProt P21802-3 765-822, Atto 488 dye label); test: MST; CT labelled with Atto 488 (100 nM), 2-fold serial dilutions of JM peptides, 25 °C; 20 mM HEPES, 150 mM NaCl, 1 mM TCEP, 0.01% Tween 20, pH 7.5; conditions: both partners purified
T2 construct: FGFR2 (IIIb, C1 isoform) C-terminal tail, the last 58 residues of FGFR2; numbers count on: FGFR2IIIb (C1 isoform, 822 residues); also called CT^C1; source: E. coli BL21(DE3), purified as GST fusion, GST removed with thrombin
T2 sequence (looked up): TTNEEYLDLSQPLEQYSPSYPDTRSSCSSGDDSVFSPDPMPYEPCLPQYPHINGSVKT

[13] = target: T1, FGFR2 kinase domain, …; test: MST; synthetic JM or CT peptides in serial dilution against KD^pY1, 25 °C; 20 mM HEPES, 150 mM NaCl, 1 mM TCEP, 0.01% Tween 20, pH 7.5; conditions: both partners purified; remark: listed apart in the source
[14] = target: JM (juxtamembrane region of FGFR2IIIb, as used in MST and NMR); test: MST; JM labeled with Atto 488, two-fold serial dilution of CT titrated
[15] = target: T3, FGFR2 JM-KD, phosphorylation state pY2 (UniProt P21802-3 414-764, Y467F (worked out from the printed order of phosphorylation) | Y589F (worked …, phosphotyrosine at 657 and 587)); test: SPR; untagged CT immobilised on a CM4 chip by amine coupling (about 200 RU); JM-KD proteins of different phosphorylation level injected at 30 µl/min, then buffer wash; steady-state fitting; conditions: both partners purified
T3 construct: numbers count on: FGFR2IIIb (C1 isoform, 822 residues); also called JM-KD^pY2; source: E. coli BL21(DE3), purified (Talon, Superdex 75)
T3 sequence (P21802 413-763 Y466F/Y588F/Y657F/Y733F): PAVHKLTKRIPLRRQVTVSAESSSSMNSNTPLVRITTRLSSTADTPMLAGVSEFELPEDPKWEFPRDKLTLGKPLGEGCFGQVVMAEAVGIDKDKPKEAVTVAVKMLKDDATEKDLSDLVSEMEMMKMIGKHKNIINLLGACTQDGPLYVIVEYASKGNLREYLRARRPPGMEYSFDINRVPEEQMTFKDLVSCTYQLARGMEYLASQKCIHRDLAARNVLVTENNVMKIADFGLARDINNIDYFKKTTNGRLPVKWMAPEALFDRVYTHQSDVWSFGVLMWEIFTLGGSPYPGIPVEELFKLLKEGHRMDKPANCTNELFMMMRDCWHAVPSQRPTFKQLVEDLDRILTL

[16] = target: T4, FGFR2 JM-KD, phosphorylation state pY5 (UniProt P21802-3 414-764, Y734F (worked out from the printed order of phosphorylation), phosphotyrosine at 657, 587, 467, 589 and 658); test: as above; conditions: both partners purified
T4 construct: numbers count on: FGFR2IIIb (C1 isoform, 822 residues); also called JM-KD^pY5; source: E. coli BL21(DE3), purified (Talon, Superdex 75)
T4 sequence (P21802 413-763 Y733F): as the sequence (P21802 413-763 Y466F/Y588F/Y657F/Y733F) above, with F54Y, F176Y, F245Y counted along it

[17] = target: T5, FGFR2 JM-KD, phosphorylation state pY4 (UniProt P21802-3 414-764, Y658F (worked out from the printed order of phosphorylation) | Y734F (worked …, phosphotyrosine at 657, 587, 467 and 589)); test: as above; conditions: both partners purified
T5 construct: numbers count on: FGFR2IIIb (C1 isoform, 822 residues); also called JM-KD^pY4; source: E. coli BL21(DE3), purified (Talon, Superdex 75)
T5 sequence (P21802 413-763 Y657F/Y733F): as the sequence (P21802 413-763 Y466F/Y588F/Y657F/Y733F) above, with F54Y, F176Y counted along it

[18] = target: T6, FGFR2 JM-KD wild type, phosphorylated (UniProt P21802-3 414-764, phosphotyrosines (phosphorylated wild type; sites not listed)); test: as above; conditions: both partners purified
T6 construct: numbers count on: FGFR2IIIb (C1 isoform, 822 residues); also called JM-KD^pWT; JM-KD^pYWT; source: E. coli BL21(DE3), purified (Talon, Superdex 75)
T6 sequence (P21802 413-763): as the sequence (P21802 413-763 Y466F/Y588F/Y657F/Y733F) above, with F54Y, F176Y, F245Y, F321Y counted along it

[19] = target: T7, FGFR2 JM-KD, phosphorylation state pY3 (UniProt P21802-3 414-764, Y589F (worked out from the printed order of phosphorylation) | Y658F (worked …, phosphotyrosine at 657, 587 and 467)); test: as above; conditions: both partners purified
T7 construct: numbers count on: FGFR2IIIb (C1 isoform, 822 residues); also called JM-KD^pY3; source: E. coli BL21(DE3), purified (Talon, Superdex 75)
T7 sequence (P21802 413-763 Y588F/Y657F/Y733F): as the sequence (P21802 413-763 Y466F/Y588F/Y657F/Y733F) above, with F54Y counted along it

FGFR2 JM-KD Y657/658F = target: T8, FGFR2 JM-KD Y657/658F (UniProt P21802-3 414-764, Y657/658F | Y657/658F); test: as above; conditions: both partners purified
T8 construct: numbers count on: FGFR2IIIb (C1 isoform, 822 residues); source: E. coli BL21(DE3), purified (Talon, Superdex 75)
T8 sequence (P21802 other isoform, or with tags, fused parts or gaps Y657/658F | Y657/658F | Y657/658F | Y657/658F): as the sequence (P21802 413-763 Y466F/Y588F/Y657F/Y733F) above, with F54Y, F176Y, Y244F, F321Y counted along it

[20] = target: T9, FGFR2 juxtamembrane region (407-462), labelled with Atto 488 (UniProt P21802-3 407-462, Atto 488 dye label); test: MST; JM labelled with Atto488 (100 nM), 2-fold serial dilutions of CT peptides, 25 °C; 20 mM HEPES, 150 mM NaCl, 1 mM TCEP, 0.01% Tween 20, pH 7.5; conditions: both partners purified
T9 construct: FGFR2 (IIIb isoform) juxtamembrane region, residues 407-462; numbers count on: FGFR2IIIb (C1 isoform, 822 residues); also called JM; 407Juxtamembrane region462; source: synthetic peptide, bought: Genscript
T9 sequence (looked up): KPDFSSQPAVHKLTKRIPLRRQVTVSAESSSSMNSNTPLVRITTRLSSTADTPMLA

[21] = target: KD^pY1 (mono-phosphorylated FGFR2IIIb kinase domain) (UniProt P21802); test: MST; peptide fragments of CT against KD^pY1 (Supplementary Table 4, Supplementary Fig. 3a)

In the case of “FGFR2 kinase domain, phosphorylation state pY6 (from UniProt P21802-3 465-764) (domain or fragment)”, the Kd [1] is reported as 20.5 µM.

In the case of “FGFR2^C3 tagged with GFP or RFP (receptor)”, the percent of molecules showing interaction [2] is reported as 26%.

“FGFR2 JM-KD, phosphorylation state pY6 (from UniProt P21802-3 414-764) (domain or fragment)” gave a Kd [3] of 4.63 µM.

“FGFR2^C2 tagged with GFP or RFP (receptor)” showed a percent of molecules showing dimerization above the control threshold [4] of 16%.

“KD^pY1 (mono-phosphorylated FGFR2IIIb kinase domain) (from UniProt P21802-3 465-764) (domain or fragment)” showed a Kd [5] of 2.51 µM, a Kd [6] of 3.75 µM and a Kd [7] of 0.112 µM.

In the case of “JM-KD^pY1 (mono-phosphorylated juxtamembrane region plus kinase domain) (from UniProt P21802-3 414-764) (domain or fragment)”, the Kd [8] is reported as 3.07 µM, the Kd [6] is reported as 0.304 µM and the Kd [9] is reported as 3.46 µM. The Kd [10] was 0.16 µM.

B1: JM peptide 414-430 (peptide)
peptide: PAVHKLTKRIPLRRQVT
notes: numbers count on: FGFR2IIIb (C1 isoform, 822 residues); source: synthetic peptide, bought: Genscript
Molecule B1 has a Kd [11] of 36.8 ± 6.23 µM.

B2: JM peptide 439-452 (peptide)
peptide: MNSNTPLVRITTRL
notes: FGFR2 (IIIb isoform) juxtamembrane region, residues 439-452; numbers count on: FGFR2IIIb (C1 isoform, 822 residues); source: synthetic peptide, bought: Genscript
With B2 the Kd [12] was 372 ± 30.3 µM.

B3: JM peptide 407-420 (peptide)
peptide: KPDFSSQPAVHKLT
notes: FGFR2 (IIIb isoform) juxtamembrane region, residues 407-420; numbers count on: FGFR2IIIb (C1 isoform, 822 residues); source: synthetic peptide, bought: Genscript
B3 showed a Kd [11] of 105 ± 7.37 µM and a Kd [12] of 200 ± 13.7 µM.

B4: CT peptide 808-822 (peptide)
peptide: PCLPQYPHINGSVKT
notes: FGFR2 (IIIb, C1 isoform) C-terminal tail, residues 808-822; numbers count on: FGFR2IIIb (C1 isoform, 822 residues); also called CT^808-822; source: synthetic peptide, bought: Genscript
B4 gave a Kd [13] of 257 ± 39.2 µM.

B5: CT peptide 808-819 (peptide)
peptide: PCLPQYPHINGS
notes: numbers count on: FGFR2IIIb (C1 isoform, 822 residues); also called 808PCLPQYPHINGS819; source: synthetic peptide, bought: Genscript
B5 was tested, and the Kd [13] was 255 ± 37.9 µM.

B6: JM peptide 429-442 (peptide)
peptide: VTVSAESSSSMNSN
notes: as for B1
In the case of B6, the Kd [12] is reported as 3.23 ± 0.326 µM.

B7: CT^C1 (C-terminal tail of FGFR2IIIb C1 isoform, GST cleaved) (domain or fragment)
chain: T2 sequence (looked up)
modifications: cysteine pairing not given here; also: Atto488 label (MST), place not given here, 15N-labeled (NMR)
Molecule B7 has a Kd [14] of 20.2 µM.

B8: FGFR2 C-terminal tail of the C1 isoform, untagged (the last 58 residues of FGFR2) (domain or fragment, UniProt P21802-3 765-822, looked up)
chain: T2 sequence (looked up)
notes: FGFR2 (IIIb, C1 isoform) C-terminal tail, the last 58 residues of FGFR2; numbers count on: FGFR2IIIb (C1 isoform, 822 residues); Unlabelled form: immobilised by amine coupling in SPR; added as 'CT' in the steady-state FRET; also called CT^C1; source: E. coli BL21(DE3), purified as GST fusion, GST removed with thrombin
In the case of B8, the Kd [15] is reported as 4.08 µM, the Kd [16] is reported as 1.6 µM and the Kd [17] is reported as 7.87 µM. The Kd [18] was 2.31 µM, the Kd [19] was 3.27 µM and the Kd (FGFR2 JM-KD Y657/658F) was 5.68 µM.

B9: CT peptide 815-822 (peptide)
peptide: HINGSVKT
notes: FGFR2 (IIIb, C1 isoform) C-terminal tail, residues 815-822; numbers count on: FGFR2IIIb (C1 isoform, 822 residues); also called CT^815-822; source: synthetic peptide, bought: Genscript
Work on B9 yielded a Kd [13] of 426 ± 42.5 µM.

B10: CT peptide 808-815 (peptide)
peptide: PCLPQYPH
notes: FGFR2 (IIIb, C1 isoform) C-terminal tail, residues 808-815; numbers count on: FGFR2IIIb (C1 isoform, 822 residues); also called CT^808-815; source: synthetic peptide, bought: Genscript
In the case of B10, the Kd [13] is reported as 291 ± 21.4 µM and the Kd [20] is reported as 56.6 ± 5.5 µM.

B11: JM peptide 449-462 (peptide)
peptide: TTRLSSTADTPMLA
notes: as for B1
In the case of B11, the Kd [12] is reported as 25.4 ± 3.26 µM.

B12: CT peptide 801-815 (peptide)
peptide: PDPMPYEPCLPQYPH
notes: as for B1
Molecule B12 has a Kd [13] of 25.8 ± 5.4 µM, a Kd [20] of 63.6 ± 6.5 µM and a Kd [21] of 25.9 µM.
